Target: SARS-CoV-2 NSP12 (SARS-CoV-2), P0DTD1

B1: N8-Pepα (peptide)
chain: NDALNNIINNARDGCVPLNIIPLTTA
modifications: not checked
Question: How did the IC50 of inhibition of SARS-CoV-2 RdRp activity in the cell-based minigenome (luciferase) assay; pair blocked: NSP12-NSP8 turn out when B1 was run?
Answer: Its IC50 of inhibition of SARS-CoV-2 RdRp activity in the cell-based minigenome (luciferase) assay; pair blocked: NSP12-NSP8 is 8 µM.

From article PMC12432892, “Therapeutic applications of interface-mimicking peptides for targeting the SARS-CoV-2 NSP12-NSP8 RdRp complex” (Molecular Therapy, 2025)
